Reference: the supplement of paper PMC5998384

What was measured:
HeLa Kyoto [1] = assay: solubility in G1/S (NP-40 vs SDS abundance) (log2 ratio); higher = more soluble; conditions: cell cycle stage: G1/S
HeLa Kyoto [2] = assay: melting temperature (median over replicates), in situ; higher = more thermally stable
HeLa Kyoto [3] = assay: solubility change mitosis vs G1/S (difference of NP-40 vs SDS log2 ratios) (log2 ratio difference); higher = more soluble in mitosis
HeLa Kyoto [4] = assay: thermal stability score vs G1/S (z-score of summed log2 fold changes over temperatures); higher = more thermally stable than in G1/S
[5] = cell cycle stage: early G1 (4.5 h after nocodazole release)
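Throughout, for melting temperature (median over replicates), in situ: HeLa Kyoto cells synchronized by double thymidine or nocodazole block, proteins quantified by TMT10plex mass spectrometry, three independent biological replicates.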
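Throughout, for solubility change mitosis vs G1/S (difference of NP-40 vs SDS log2 ratios): synchronized HeLa Kyoto cells (double thymidine block for G1/S, nocodazole release for mitosis), protein amounts in NP-40 versus SDS lysates quantified by mass spectrometry, three biological replicates.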
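Throughout, for solubility in G1/S (NP-40 vs SDS abundance): HeLa Kyoto cells arrested at G1/S by double thymidine block, proteins quantified by TMT10plex mass spectrometry in mild NP-40 versus SDS extracts, three biological replicates.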
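Throughout, for thermal stability score vs G1/S (z-score of summed log2 fold changes over temperatures): synchronized HeLa Kyoto cells, proteins quantified by TMT10plex mass spectrometry, three biological replicates, mitosis taken 0.5 h after nocodazole release, G1/S directly after double thymidine block.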

SORCS2, sequence (chain, as listed by the source): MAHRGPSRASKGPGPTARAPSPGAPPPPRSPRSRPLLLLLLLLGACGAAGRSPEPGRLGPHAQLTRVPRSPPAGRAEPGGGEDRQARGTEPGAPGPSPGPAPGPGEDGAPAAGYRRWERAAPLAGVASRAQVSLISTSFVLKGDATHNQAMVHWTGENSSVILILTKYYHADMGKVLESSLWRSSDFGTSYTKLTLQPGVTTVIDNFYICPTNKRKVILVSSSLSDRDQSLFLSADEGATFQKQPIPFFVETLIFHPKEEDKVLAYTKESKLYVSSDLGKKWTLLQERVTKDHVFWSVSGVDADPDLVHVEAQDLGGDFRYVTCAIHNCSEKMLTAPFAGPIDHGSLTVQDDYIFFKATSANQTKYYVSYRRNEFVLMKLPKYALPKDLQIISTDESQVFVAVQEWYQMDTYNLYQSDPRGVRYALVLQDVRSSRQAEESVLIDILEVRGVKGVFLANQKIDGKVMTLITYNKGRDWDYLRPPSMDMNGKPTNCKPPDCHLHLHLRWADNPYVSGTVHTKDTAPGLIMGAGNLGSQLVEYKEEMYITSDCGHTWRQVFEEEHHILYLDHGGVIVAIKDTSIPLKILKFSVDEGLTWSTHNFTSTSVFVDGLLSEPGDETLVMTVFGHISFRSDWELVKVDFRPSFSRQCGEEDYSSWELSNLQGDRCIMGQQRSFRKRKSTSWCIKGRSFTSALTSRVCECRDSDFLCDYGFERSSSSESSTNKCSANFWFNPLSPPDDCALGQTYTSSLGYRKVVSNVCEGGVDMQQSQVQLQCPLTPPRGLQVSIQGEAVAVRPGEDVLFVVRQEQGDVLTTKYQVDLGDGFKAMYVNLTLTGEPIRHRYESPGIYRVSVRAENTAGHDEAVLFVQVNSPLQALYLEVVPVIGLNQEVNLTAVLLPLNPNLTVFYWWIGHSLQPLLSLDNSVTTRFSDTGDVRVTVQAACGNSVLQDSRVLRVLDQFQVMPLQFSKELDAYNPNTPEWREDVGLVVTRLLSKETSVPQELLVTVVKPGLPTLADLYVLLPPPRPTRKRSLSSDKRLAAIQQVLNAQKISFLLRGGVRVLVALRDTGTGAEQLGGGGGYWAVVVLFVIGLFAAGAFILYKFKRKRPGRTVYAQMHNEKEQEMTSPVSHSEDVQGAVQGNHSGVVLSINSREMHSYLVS

Row | Substance | solubility in G1/S (log2) (HeLa Kyoto [1]) | melting temperature (HeLa Kyoto [2]; cell cycle stage: G1/S) [°C] | melting temperature (HeLa Kyoto [2]; cell cycle stage: mitosis) [°C] | solubility change mitosis (log2) (HeLa Kyoto [3]) | thermal stability score (HeLa Kyoto [4]; [5]) | thermal stability score (HeLa Kyoto [4]; cell cycle stage: mitosis)
1 | MALAARLLPQFLHSRSLPCGAVRLRTPAVAEVRLPSATLCYFCRCRLGLGAALFPRSARALAASALPAQGSRWPVLSSPGLPAAFASFPACPQRSYSTEEKPQQHQKTKMIVLGFSNPINWVRTRIKAFLIWAYFDKEFSITEFSEGAKQAFAHVSKLLSQCKFDLLEELVAKEVLHALKEKVTSLPDNHKNALAANIDEIVFTSTGDISIYYDEKGRKFVNILMCFWYLTSANIPSETLRGASVFQVKLGNQNVETKQLLSASYEFQREFTQGVKPDWTIARIEHSKLLE [C2ORF47] | -0.257 | 53.7 | 53.3 | -0.117 | 0.0315 | 0.76
2 | MLLSLVLHTYSMRYLLPSVVLLGTAPTYVLAWGVWRLLSAFLPARFYQALDDRLYCVYQSMVLFFFENYTGVQILLYGDLPKNKENIIYLANHQSTVDWIVADILAIRQNALGHVRYVLKEGLKWLPLYGCYFAQHGGIYVKRSAKFNEKEMRNKLQSYVDAGTPMYLVIFPEGTRYNPEQTKVLSASQAFAAQRGLAVLKHVLTPRIKATHVAFDCMKNYLDAIYDVTVVYEGKDDGGQRRESPTMTEFLCKECPKIHIHIDRIDKKDVPEEQEHMRRWLHERFEIKDKMLIEFYESPDPERRKRFPGKSVNSKLSIKKTLPSMLILSGLTAGMLMTDAGRKLYVNTWIYGTLLGCLWVTIKA [AGPAT5] | -0.125 | 52.1 | 52.6 | -0.0679 | 0.0279 | -1.01
3 | SORCS2 | 0.0123 | 53.7 | 50.4 | -0.162 | -2.23 | -3.21
4 | MSKSLKKLVEESREKNQPEVDMSDRGISNMLDVNGLFTLSHITQLVLSHNKLTMVPPNIAELKNLEVLNFFNNQIEELPTQISSLQKLKHLNLGMNRLNTLPRGFGSLPALEVLDLTYNNLSENSLPGNFFYLTTLRALYLSDNDFEILPPDIGKLTKLQILSLRDNDLISLPKEIGELTQLKELHIQGNRLTVLPPELGNLDLTGQKQVFKAENNPWVTPIADQFQLGVSHVFEYIRSETYKYLYGRHMQANPEPPKKNNDKSKKISRKPLAAKNR [RSU1] | 0.389 | 50.3 | 52.9 | 0.203 | -0.646 | -1.96
5 | MKLKLNVLTIILLPVHLLITIYSALIFIPWYFLTNAKKKNAMAKRIKAKPTSDKPGSPYRSVTHFDSLAVIDIPGADTLDKLFDHAVSKFGKKDSLGTREILSEENEMQPNGKVFKKLILGNYKWMNYLEVNRRVNNFGSGLTALGLKPKNTIAIFCETRAEWMIAAQTCFKYNFPLVTLYATLGKEAVVHGLNESEASYLITSVELLESKLKTALLDISCVKHIIYVDNKAINKAEYPEGFEIHSMQSVEELGSNPENLGIPPSRPTPSDMAIVMYTSGSTGRPKGVMMHHSNLIAGMTGQCERIPGLGPKDTYIGYLPLAHVLELTAEISCFTYGCRIGYSSPLTLSDQSSKIKKGSKGDCTVLKPTLMAAVPEIMDRIYKNVMSKVQEMNYIQKTLFKIGYDYKLEQIKKGYDAPLCNLLLFKKVKALLGGNVRMMLSGGAPLSPQTHRFMNVCFCCPIGQGYGLTESCGAGTVTEVTDYTTGRVGAPLICCEIKLKDWQEGGYTINDKPNPRGEIVIGGQNISMGYFKNEEKTAEDYSVDENGQRWFCTGDIGEFHPDGCLQIIDRKKDLVKLQAGEYVSLGKVEAALKNCPLIDNICAFAKSDQSYVISFVVPNQKRLTLLAQQKGVEGTWVDICNNPAMEAEILKEIREAANAMKLERFEIPIKVRLSPEPWTPETGLVTDAFKLKRKELRNHYLKDIERMYGGK [ACSL4] | -0.0428 | 48.8 | 48.7 | -0.157 | 1.35 | 2.2
6 | MGRRRAPELYRAPFPLYALQVDPSTGLLIAAGGGGAAKTGIKNGVHFLQLELINGRLSASLLHSHDTETRATMNLALAGDILAAGQDAHCQLLRFQAHQQQGNKAEKAGSKEQGPRQRKGAAPAEKKCGAETQHEGLELRVENLQAVQTDFSSDPLQKVVCFNHDNTLLATGGTDGYVRVWKVPSLEKVLEFKAHEGEIEDLALGPDGKLVTVGRDLKASVWQKDQLVTQLHWQENGPTFSSTPYRYQACRFGQVPDQPAGLRLFTVQIPHKRLRQPPPCYLTAWDGSNFLPLRTKSCGHEVVSCLDVSESGTFLGLGTVTGSVAIYIAFSLQCLYYVREAHGIVVTDVAFLPEKGRGPELLGSHETALFSVAVDSRCQLHLLPSRRSVPVWLLLLLCVGLIIVTILLLQSAFPGFL [PREB] | -0.0601 | 53.8 | 54.1 | -0.103 | -0.808 | -1.93
7 | MCSLGLFPPPPPRGQVTLYEHNNELVTGSSYESPPPDFRGQWINLPVLQLTKDPLKTPGRLDHGTRTAFIHHREQVWKRCINIWRDVGLFGVLNEIANSEEEVFEWVKTASGWALALCRWASSLHGSLFPHLSLRSEDLIAEFAQVTNWSSCCLRVFAWHPHTNKFAVALLDDSVRVYNASSTIVPSLKHRLQRNVASLAWKPLSASVLAVACQSCILIWTLDPTSLSTRPSSGCAQVLSHPGHTPVTSLAWAPSGGRLLSASPVDAAIRVWDVSTETCVPLPWFRGGGVTNLLWSPDGSKILATTPSAVFRVWEAQMWTCERWPTLSGRCQTGCWSPDGSRLLFTVLGEPLIYSLSFPERCGEGKGCVGGAKSATIVADLSETTIQTPDGEERLGGEAHSMVWDPSGERLAVLMKGKPRVQDGKPVILLFRTRNSPVFELLPCGIIQGEPGAQPQLITFHPSFNKGALLSVGWSTGRIAHIPLYFVNAQFPRFSPVLGRAQEPPAGGGGSIHDLPLFTETSPTSAPWDPLPGPPPVLPHSPHSHL [AAAS] | -0.296 | 53.6 | 51 | 0.0315 | -4.87 | -7.02
